# Measurements as given in IntAct's records for PubMed 22522702.
# B1: ADP-ribosylation factor 6 (Mus musculus), P62331 (parent)
# chain: MGKVLSKIFGNKEMRILMLGLDAAGKTTILYKLKLGQSVTTIPTVGFNVETVTYKNVKFNVWDVGGQDKIRPLWRHYYTGTQGLIFVVDCADRDRIDEARQELHRIINDREMRDAIILIFANKQDLPDAMKPHEIQEKLGLTRIRDRNWYVQPSCATSGDGLYEGLTWLTSNYKS
# partner: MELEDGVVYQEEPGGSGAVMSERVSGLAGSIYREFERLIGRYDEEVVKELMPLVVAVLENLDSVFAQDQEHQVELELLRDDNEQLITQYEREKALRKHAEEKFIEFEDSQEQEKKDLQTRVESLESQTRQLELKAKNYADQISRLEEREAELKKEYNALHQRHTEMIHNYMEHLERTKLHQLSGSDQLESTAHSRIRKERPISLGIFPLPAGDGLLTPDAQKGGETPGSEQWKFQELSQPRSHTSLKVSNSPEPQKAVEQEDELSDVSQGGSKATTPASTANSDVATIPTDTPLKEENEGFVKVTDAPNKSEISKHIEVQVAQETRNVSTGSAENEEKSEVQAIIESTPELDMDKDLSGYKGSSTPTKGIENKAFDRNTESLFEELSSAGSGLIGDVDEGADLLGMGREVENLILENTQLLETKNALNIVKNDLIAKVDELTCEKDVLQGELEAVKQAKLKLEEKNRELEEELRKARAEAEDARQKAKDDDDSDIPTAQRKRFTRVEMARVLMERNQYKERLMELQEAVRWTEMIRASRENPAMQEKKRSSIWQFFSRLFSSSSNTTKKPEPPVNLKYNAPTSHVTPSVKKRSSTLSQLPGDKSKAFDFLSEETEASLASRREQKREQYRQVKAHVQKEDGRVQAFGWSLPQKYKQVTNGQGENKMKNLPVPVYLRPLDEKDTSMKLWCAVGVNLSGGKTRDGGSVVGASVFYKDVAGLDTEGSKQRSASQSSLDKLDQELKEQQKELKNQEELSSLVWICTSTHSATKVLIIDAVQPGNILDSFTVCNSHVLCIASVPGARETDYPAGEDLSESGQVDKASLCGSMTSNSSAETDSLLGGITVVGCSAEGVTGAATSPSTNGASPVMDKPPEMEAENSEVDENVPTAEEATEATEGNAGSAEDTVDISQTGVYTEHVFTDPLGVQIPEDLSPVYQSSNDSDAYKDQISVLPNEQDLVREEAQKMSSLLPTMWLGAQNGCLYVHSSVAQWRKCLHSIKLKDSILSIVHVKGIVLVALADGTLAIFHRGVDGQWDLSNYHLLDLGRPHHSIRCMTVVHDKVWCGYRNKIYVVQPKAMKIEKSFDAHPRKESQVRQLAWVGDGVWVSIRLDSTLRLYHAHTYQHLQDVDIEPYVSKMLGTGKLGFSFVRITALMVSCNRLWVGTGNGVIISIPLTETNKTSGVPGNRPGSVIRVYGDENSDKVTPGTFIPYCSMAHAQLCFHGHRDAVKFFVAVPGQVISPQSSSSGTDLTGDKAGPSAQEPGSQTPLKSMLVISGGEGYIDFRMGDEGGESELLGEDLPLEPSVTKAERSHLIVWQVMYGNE
# B2: ADP-ribosylation factor 6 (Mus musculus), P62331 (parent)
# chain: B1 chain
# partner: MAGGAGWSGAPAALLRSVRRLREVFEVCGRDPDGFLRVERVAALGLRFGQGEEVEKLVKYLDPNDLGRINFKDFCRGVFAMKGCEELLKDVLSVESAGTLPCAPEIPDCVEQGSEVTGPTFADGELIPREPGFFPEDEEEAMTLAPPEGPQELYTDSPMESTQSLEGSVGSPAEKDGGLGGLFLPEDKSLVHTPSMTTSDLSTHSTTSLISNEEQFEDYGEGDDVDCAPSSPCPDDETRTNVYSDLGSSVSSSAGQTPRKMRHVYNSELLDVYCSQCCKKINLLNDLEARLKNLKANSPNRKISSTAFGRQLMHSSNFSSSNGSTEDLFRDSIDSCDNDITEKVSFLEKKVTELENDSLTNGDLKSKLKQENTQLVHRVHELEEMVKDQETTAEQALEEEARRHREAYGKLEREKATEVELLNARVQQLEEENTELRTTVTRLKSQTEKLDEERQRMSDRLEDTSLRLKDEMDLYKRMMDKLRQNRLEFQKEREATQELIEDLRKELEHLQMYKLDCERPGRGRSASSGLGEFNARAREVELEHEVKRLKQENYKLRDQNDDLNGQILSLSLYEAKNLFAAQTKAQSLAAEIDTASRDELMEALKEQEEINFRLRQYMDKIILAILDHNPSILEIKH
# B3: ADP-ribosylation factor 6 (Mus musculus), P62331 (parent)
# chain: B1 chain
# partner: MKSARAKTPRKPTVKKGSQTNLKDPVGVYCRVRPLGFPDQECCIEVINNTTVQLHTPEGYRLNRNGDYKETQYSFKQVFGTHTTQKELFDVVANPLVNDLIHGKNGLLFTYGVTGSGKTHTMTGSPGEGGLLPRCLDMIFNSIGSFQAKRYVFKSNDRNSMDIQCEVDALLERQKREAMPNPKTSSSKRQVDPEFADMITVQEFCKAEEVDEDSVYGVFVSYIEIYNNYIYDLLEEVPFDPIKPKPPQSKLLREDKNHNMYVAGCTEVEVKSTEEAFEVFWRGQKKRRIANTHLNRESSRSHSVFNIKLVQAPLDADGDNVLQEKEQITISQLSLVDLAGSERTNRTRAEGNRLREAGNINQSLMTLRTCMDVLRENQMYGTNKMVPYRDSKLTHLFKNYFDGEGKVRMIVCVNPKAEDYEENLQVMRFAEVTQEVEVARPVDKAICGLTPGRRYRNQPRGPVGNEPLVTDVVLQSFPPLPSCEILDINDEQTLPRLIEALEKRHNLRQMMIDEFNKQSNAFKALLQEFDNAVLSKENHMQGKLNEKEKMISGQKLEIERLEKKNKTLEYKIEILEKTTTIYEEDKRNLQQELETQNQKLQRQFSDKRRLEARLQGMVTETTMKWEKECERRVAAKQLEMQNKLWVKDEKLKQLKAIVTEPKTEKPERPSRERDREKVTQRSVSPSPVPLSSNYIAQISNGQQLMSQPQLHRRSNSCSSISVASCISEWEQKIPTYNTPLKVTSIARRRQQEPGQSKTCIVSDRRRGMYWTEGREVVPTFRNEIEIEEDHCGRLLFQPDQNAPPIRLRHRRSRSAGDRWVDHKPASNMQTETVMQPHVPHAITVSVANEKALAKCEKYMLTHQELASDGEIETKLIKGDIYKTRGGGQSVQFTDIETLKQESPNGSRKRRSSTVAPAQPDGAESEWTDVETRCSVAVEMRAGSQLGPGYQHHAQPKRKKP
# B4: ADP-ribosylation factor 6 (Mus musculus), P62331 (parent)
# chain: B1 chain
# partner: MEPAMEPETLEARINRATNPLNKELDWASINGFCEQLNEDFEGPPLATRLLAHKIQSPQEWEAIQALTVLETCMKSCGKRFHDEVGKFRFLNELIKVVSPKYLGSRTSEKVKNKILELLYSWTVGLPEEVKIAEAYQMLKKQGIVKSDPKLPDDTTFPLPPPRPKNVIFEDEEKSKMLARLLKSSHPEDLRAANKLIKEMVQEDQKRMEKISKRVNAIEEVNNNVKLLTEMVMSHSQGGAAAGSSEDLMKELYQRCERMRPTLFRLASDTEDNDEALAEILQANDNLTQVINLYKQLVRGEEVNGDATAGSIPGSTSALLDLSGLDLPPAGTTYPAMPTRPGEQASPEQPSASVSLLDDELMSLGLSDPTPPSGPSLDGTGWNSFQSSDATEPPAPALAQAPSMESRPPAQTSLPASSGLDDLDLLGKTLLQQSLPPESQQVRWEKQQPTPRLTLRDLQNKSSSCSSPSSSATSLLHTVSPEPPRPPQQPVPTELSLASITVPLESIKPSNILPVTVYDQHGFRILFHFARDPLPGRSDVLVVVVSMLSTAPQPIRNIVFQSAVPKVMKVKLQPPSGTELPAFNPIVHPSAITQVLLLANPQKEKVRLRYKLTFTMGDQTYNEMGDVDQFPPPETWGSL
# Variants of: B1
# Details: with jip4_human SPAG9, O60271
row,Variant,effect of a mutation on the interaction
1,H76A,disrupting interaction

# Variants of: B1
# Details: with jip4_human SPAG9, O60271
# Remark: another data set of the same source
row,Variant,effect of a mutation on the interaction
1,Y77A,disrupting interaction
2,Q67L,disrupting interaction

# Variants of: B2
# Details: with rfip4_human RAB11FIP4, Q86YS3
row,Variant,effect of a mutation on the interaction
1,Q67L,disrupting interaction
2,H76A,disrupting interaction

# Variants of: B2
# Details: with rfip4_human RAB11FIP4, Q86YS3
# Remark: another data set of the same source
row,Variant,effect of a mutation on the interaction
1,Y77A,disrupting interaction

# Variants of: B3
# Details: with kif23_human KIF23, Q02241
row,Variant,effect of a mutation on the interaction
1,Y77A,disrupting interaction
2,Q67L,disrupting interaction

# Variants of: B3
# Details: with kif23_human KIF23, Q02241
# Remark: another data set of the same source
row,Variant,effect of a mutation on the interaction
1,H76A,decreasing interaction
2,Q67L,decreasing interaction

# Variants of: B3
# Details: with kif23_human KIF23, Q02241
# Remark: another data set of the same source
row,Variant,effect of a mutation on the interaction
1,Q67L,increasing interaction

# Variants of: B3
# Details: with kif23_human KIF23, Q02241
# Remark: another data set of the same source
row,Variant,effect of a mutation on the interaction
1,T27N,decreasing interaction

# Variants of: B4
# Details: with gga1_human GGA1, Q9UJY5
row,Variant,effect of a mutation on the interaction
1,H76A,disrupting interaction

# Variants of: B4
# Details: with gga1_human GGA1, Q9UJY5
# Remark: another data set of the same source
row,Variant,effect of a mutation on the interaction
1,Q67L,disrupting interaction
2,Y77A,disrupting interaction
